Assay results reported in paper PMC8584998, “Arabidopsis FHY3 and FAR1 Function in Age Gating of Leaf Senescence”.

Biological target: T1, MBP-EIN3N (UniProt O24606 141-352)
T1 sequence: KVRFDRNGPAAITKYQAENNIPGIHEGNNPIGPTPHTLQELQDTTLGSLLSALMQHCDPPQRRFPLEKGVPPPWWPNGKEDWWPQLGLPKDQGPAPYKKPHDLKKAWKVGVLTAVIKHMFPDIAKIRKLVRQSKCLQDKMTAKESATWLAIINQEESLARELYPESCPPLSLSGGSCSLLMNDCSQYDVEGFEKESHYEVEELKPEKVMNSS
Assay: EMSA; LightShift Chemiluminescent EMSA kit (Pierce), 10 min at room temperature, 6% native polyacrylamide gel; buffer, salt and pH not stated
Settings: protein: recombinant; tags: MBP; chain copies: 2; label: biotin; blunt

B1: ORE1 EBS (dsDNA)
DNA 1: ATACTTTACAAGGTTCATGCATGCATAC
DNA 2: GTATGCATGCATGAACCTTGTAAAGTAT
binding result: binds
